The values that follow come from patent US11370837 (dated 2022).

T1: human TIGIT-Fc (human, UniProt Q495A1)
T1 chain: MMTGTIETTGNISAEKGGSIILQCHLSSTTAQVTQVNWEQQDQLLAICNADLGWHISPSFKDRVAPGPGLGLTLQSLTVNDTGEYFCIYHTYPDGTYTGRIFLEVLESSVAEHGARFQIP

T2: human TIGIT on CHO cells (human, UniProt Q495A1)
T2 chain: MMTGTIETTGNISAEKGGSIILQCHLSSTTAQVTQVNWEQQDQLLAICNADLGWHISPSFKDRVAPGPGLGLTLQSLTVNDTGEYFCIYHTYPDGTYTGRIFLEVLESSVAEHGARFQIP

B1: ADI-27278 Fab (antibody, V domains shown)
VH: EVQLVESGGGLVQPGGSLRLSCAASGFTFSSYSMNWVRQAPGKGLEWVSYISGSSSTIYYADSVKGRFTISRDNAKNSLYLQMNSLRAEDTAVYYCARHRIADSPSRAFDIWGQGTMVTVSS
VL: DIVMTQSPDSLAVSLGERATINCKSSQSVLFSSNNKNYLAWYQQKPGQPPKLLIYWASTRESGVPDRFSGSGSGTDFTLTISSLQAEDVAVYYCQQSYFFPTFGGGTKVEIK
B2: ADI-30293 Fab (antibody, V domains shown)
VH: EVQLVESGGGLVQPGGSLRLSCAASGFTFSSYSMNWVRQAPGKGLEWVSYISSSGTINYADSVKGRFTISRDNAKNSLYLQMNSLRAEDTAVYYCARHRIADSPSRAFDIWGQGTMVTVSS
VL: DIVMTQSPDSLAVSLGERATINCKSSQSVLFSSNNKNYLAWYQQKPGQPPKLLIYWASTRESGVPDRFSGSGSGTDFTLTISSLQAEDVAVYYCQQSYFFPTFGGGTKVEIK
B3: ADI-30296 Fab (antibody, V domains shown)
VH: EVQLVESGGGLVQPGGSLRLSCAASGFTIGGYSMNWVRQAPGKGLEWVSYISSSSTIHYADSVKGRFTISRDNAKNSLYLQMNSLRAEDTAVYYCARHRIGRSPSRAFDIWGQGTMVTVSS
VL: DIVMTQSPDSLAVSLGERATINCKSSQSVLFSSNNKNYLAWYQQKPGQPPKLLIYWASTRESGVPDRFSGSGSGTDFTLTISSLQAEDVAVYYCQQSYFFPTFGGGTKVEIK
B4: ADI-30268 Fab (antibody, V domains shown)
VH: QVQLVQSGAEVKKPGASVKVSCKASGYTFGSYYMGWVRQAPGQGLEWMGIIDPSGGRTSYARKFQGRVTMTRDTSTSTVYMELSSLRSEDTAVYYCARARTPSSWPYGMDVWGQGTTVTVSS
VL: DIQMTQSPSSLSASVGDRVTITCRASQSINSYLNWYQQKPGKAPKLLIYAASSLQSGVPSRFSGSGSGTDFTLTISSLQPEDFATYYCQQSLLTPFTFGGGTKVEIK
B5: ADI-30267 Fab (antibody, V domains shown)
VH: QVQLVQSGAEVKKPGASVKVSCKASGYTFRSYYMSWVRQAPGQGLEWMGIIDPSGGRTSFAQKFQGRVTMTRDTSTSTVYMELSSLRSEDTAVYYCARARYPESWPYGMDVWGQGTTVTVSS
VL: DIQMTQSPSSLSASVGDRVTITCRASQSINSYLNWYQQKPGKAPKLLIYAASSLQSGVPSRFSGSGSGTDFTLTISSLQPEDFATYYCQQSLLTPFTFGGGTKVEIK
B6: ADI-30263 Fab (antibody, V domains shown)
VH: QVQLVQSGAEVKKPGASVKVSCKASGYTFLSYYMNWVRQAPGQGLEWMGIIDPSGGRTSYAQKFQGRVTMTRDTSTSTVYMELSSLRSEDTAVYYCARARYPSSWPYGTDVWGQGTTVTVSS
VL: DIQMTQSPSSLSASVGDRVTITCRASQSINSYLNWYQQKPGKAPKLLIYAASSLQSGVPSRFSGSGSGTDFTLTISSLQPEDFATYYCQQSLLTPFTFGGGTKVEIK
B7: ADI-27238 Fab (antibody, V domains shown)
VH: QVQLVQSGAEVKKPGASVKVSCKASGYTFTSYYMSWVRQAPGQGLEWMGIINPSGGSTSYAQKFQGRVTMTRDTSTSTVYMELSSLRSEDTAVYYCARARYPSSWPYGMDVWGQGTTVTVSS
VL: DIQMTQSPSSLSASVGDRVTITCRASQSINSYLNWYQQKPGKAPKLLIYAASSLQSGVPSRFSGSGSGTDFTLTISSLQPEDFATYYCQQSLLTPFTFGGGTKVEIK
B8: ADI-30286 Fab (antibody, V domains shown)
VH: EVQLLESGGGLVQPGGSLRLSCAASGFTFGPYGMSWVRQAPGKGLEWVSAISGSGASTWYADSVKGRFTISRDNSKNTLYLQMNSLRAEDTAVYYCAKDPGTHYSGYYYIWRYWGQGTLVTVSS
VL: EIVMTQSPATLSVSPGERATLSCRASQSVSSNLAWYQQKPGQAPRLLIYSASTRATGIPARFSGSGSGTEFTLTISSLQSEDFAVYYCQQYVPHPPFTFGGGTKVEIK
B9: ADI-27291 Fab (antibody, V domains shown)
VH: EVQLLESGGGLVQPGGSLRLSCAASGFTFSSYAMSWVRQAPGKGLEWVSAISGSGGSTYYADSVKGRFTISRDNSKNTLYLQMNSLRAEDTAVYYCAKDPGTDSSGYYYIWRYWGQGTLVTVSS
VL: EIVMTQSPATLSVSPGERATLSCRASQSVSSNLAWYQQKPGQAPRLLIYSASTRATGIPARFSGSGSGTEFTLTISSLQSEDFAVYYCQQYVPHPPFTFGGGTKVEIK
B10: ADI-30283 Fab (antibody, V domains shown)
VH: EVQLLESGGGLVQPGGSLRLSCAASGFTFSPYGMSWVRQAPGKGLEWVSSISGSGGRTYYADSVKGRFTISRDNSKNTLYLQMNSLRAEDTAVYYCAKDPGTDSSGYYYIWRYWGQGTLVTVSS
VL: EIVMTQSPATLSVSPGERATLSCRASQSVSSNLAWYQQKPGQAPRLLIYSASTRATGIPARFSGSGSGTEFTLTISSLQSEDFAVYYCQQYVPHPPFTFGGGTKVEIK
B11: ADI-30288 Fab (antibody, V domains shown)
VH: EVQLLESGGGLVQPGGSLRLSCAASGFTFGPYGMSWVRQAPGKGLEWVSAISGSGASTWHADSVKGRFTISRDNSKNTLYLQMNSLRAEDTAVYYCAKDPGTDSTGYYYIWRYWGQGTLVTVSS
VL: EIVMTQSPATLSVSPGERATLSCRASQSVSSNLAWYQQKPGQAPRLLIYSASTRATGIPARFSGSGSGTEFTLTISSLQSEDFAVYYCQQYVPHPPFTFGGGTKVEIK
B12: ADI-27301 Fab (antibody, V domains shown)
VH: QLQLQESGPGLVKPSETLSLTCTVSGGSISSSSYYWGWIRQPPGKGLEWIGSIYYSGSTYYNPSLKSRVTISVDTSKNQFSLKLSSVTAADTAVYYCAREAGRGTTGLLFDYWGQGTLVTVSS
VL: DIQMTQSPSTLSASVGDRVTITCRASQSISSWLAWYQQKPGKAPKLLIYKASSLESGVPSRFSGSGSGTEFTLTISSLQPDDFATYYCQQYGILPRTFGGGTKVEIK
B13: ADI-30311 Fab (antibody, V domains shown)
VH: QLQLQESGPGLVKPSETLSLTCTVSGGSIASSVYYWGWIRQPPGKGLEWIGSIYYSGSTWYNPSLKSRVTISVDTSKNQFSLKLSSVTAADTAVYYCAREAGRTGTGLLFDYWGQGTLVTVSS
VL: DIQMTQSPSTLSASVGDRVTITCRASQSISSWLAWYQQKPGKAPKLLIYKASSLESGVPSRFSGSGSGTEFTLTISSLQPDDFATYYCQQYGILPRTFGGGTKVEIK
B14: ADI-30336 Fab (antibody, V domains shown)
VH: QLQLQESGPGLVKPSETLSLTCTVSGGSISSSRYYWGWIRQPPGKGLEWIGSIYYSGSTYYNPSLKSRVTISVDTSKNQFSLKLSSVTAADTAVYYCARDGLYHTPEYFQHWGQGTLVTVSS
VL: EIVLTQSPATLSLSPGERATLSCRASQSVSSYLAWYQQKPGQAPRLLIYDASNRATGIPARFSGSGSGTDFTLTISSLEPEDFAVYYCQQRFAHPYTFGGGTKVEIK
B15: ADI-30302 Fab (antibody, V domains shown)
VH: QLQLQESGPGLVKPSETLSLTCTVSGGSIGSSQYYWGWIRQPPGKGLEWIGSIYRSGGTYYNPSLKSRVTISVDTSKNQFSLKLSSVTAADTAVYYCARDGLYHTPEYFQHWGQGTLVTVSS
VL: EIVLTQSPATLSLSPGERATLSCRASQSVSSYLAWYQQKPGQAPRLLIYDASNRATGIPARFSGSGSGTDFTLTISSLEPEDFAVYYCQQRFAFPYTFGGGTKVEIK
B16: ADI-27243 Fab (antibody, V domains shown)
VH: QLQLQESGPGLVKPSETLSLTCTVSGGSISSSRYYWGWIRQPPGKGLEWIGSIYYSGSTYYNPSLKSRVTISVDTSKNQFSLKLSSVTAADTAVYYCARDGLYHTPEYFQHWGQGTLVTVSS
VL: EIVLTQSPATLSLSPGERATLSCRASQSVSSYLAWYQQKPGQAPRLLIYDASNRATGIPARFSGSGSGTDFTLTISSLEPEDFAVYYCQQRFAFPYTFGGGTKVEIK
B17: ADI-30272 Fab (antibody, V domains shown)
VH: QVQLVQSGAEVKKPGASVKVSCKASGYTFTEYYMHWVRQAPGQGLEWMGIISPSAGSTSYAQKFQGRVTMTRDTSTSTVYMELSSLRSEDTAVYYCARDHDIAAAGRLADYWGQGTLVTVSS
VL: DIQMTQSPSSVSASVGDRVTITCRASQGISSWLAWYQQKPGKAPKLLISAASSLQSGVPSRFSGSGSGTDFTLTISSLQPEDFATYYCQQAVILPITFGGGTKVEIK
B18: ADI-30278 Fab (antibody, V domains shown)
VH: QVQLVQSGAEVKKPGASVKVSCKASGYTFTEYYMHWVRQAPGQGLEWMGIISPSAGSTKYAQKFQGRVTMTRDTSTSTVYMELSSLRSEDTAVYYCARDHDIRLAGRLADYWGQGTLVTVSS
VL: DIQMTQSPSSVSASVGDRVTITCRASQGISSWLAWYQQKPGKAPKLLISAASSLQSGVPSRFSGSGSGTDFTLTISSLQPEDFATYYCQQAVILPITFGGGTKVEIK
B19: ADI-27297 Fab (antibody, V domains shown)
VH: QVQLVQSGAEVKKPGASVKVSCKASGYTFTSYYMHWVRQAPGQGLEWMGIINPSGGSTSYAQKFQGRVTMTRDTSTSTVYMELSSLRSEDTAVYYCARDHDIAAAGRLADYWGQGTLVTVSS
VL: DIQMTQSPSSVSASVGDRVTITCRASQGISSWLAWYQQKPGKAPKLLISAASSLQSGVPSRFSGSGSGTDFTLTISSLQPEDFATYYCQQAVILPITFGGGTKVEIK
B20: ADI-27278 (antibody, V domains shown)
VH: EVQLVESGGGLVQPGGSLRLSCAASGFTFSSYSMNWVRQAPGKGLEWVSYISGSSSTIYYADSVKGRFTISRDNAKNSLYLQMNSLRAEDTAVYYCARHRIADSPSRAFDIWGQGTMVTVSS
VL: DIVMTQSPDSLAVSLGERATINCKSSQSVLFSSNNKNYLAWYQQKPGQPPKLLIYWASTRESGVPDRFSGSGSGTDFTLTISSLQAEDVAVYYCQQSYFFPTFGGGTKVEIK
B21: ADI-30302 (antibody, V domains shown)
VH: QLQLQESGPGLVKPSETLSLTCTVSGGSIGSSQYYWGWIRQPPGKGLEWIGSIYRSGGTYYNPSLKSRVTISVDTSKNQFSLKLSSVTAADTAVYYCARDGLYHTPEYFQHWGQGTLVTVSS
VL: EIVLTQSPATLSLSPGERATLSCRASQSVSSYLAWYQQKPGQAPRLLIYDASNRATGIPARFSGSGSGTDFTLTISSLEPEDFAVYYCQQRFAFPYTFGGGTKVEIK
B22: ADI-27243 (antibody, V domains shown)
VH: QLQLQESGPGLVKPSETLSLTCTVSGGSISSSRYYWGWIRQPPGKGLEWIGSIYYSGSTYYNPSLKSRVTISVDTSKNQFSLKLSSVTAADTAVYYCARDGLYHTPEYFQHWGQGTLVTVSS
VL: EIVLTQSPATLSLSPGERATLSCRASQSVSSYLAWYQQKPGQAPRLLIYDASNRATGIPARFSGSGSGTDFTLTISSLEPEDFAVYYCQQRFAFPYTFGGGTKVEIK

The term Kd denotes the equilibrium constant for the complex coming apart. High values mean lower affinity, low ones higher affinity. The term EC50 denotes the concentration giving half of the maximal effect. A lower EC50 goes with a more potent agent. By IC50 is commonly meant the concentration needed to halve the response being measured. High values mean a need for much substance, low ones inhibition by little substance.

For the first experiment, the target named is T1, human TIGIT-Fc. The experiment is described as follows: BLI. Background: BLI is a label-free optical method that tracks binding on a fibre tip over time.
Regarding B1, binding was put at a Kd of 10900 pM.

As to B2, the affinity, expressed as Kd, was 3490 pM.

For B3, binding was put at a Kd of 2430 pM.

B4 showed a Kd of 571 pM.

As for B5, the Kd was 1660 pM.

Molecule B6 registered an equilibrium dissociation constant (Kd) of 795 pM.

B7: the Kd worked out at 13800 pM.

In the case of B8, the dissociation constant Kd is 436 pM.

Consider B9, for which the Kd is 6480 pM.

In the case of B10, the Kd was found to be 553 pM.

As to B11, binding was put at a Kd of 547 pM.

Molecule B12 registered a Kd of 8010 pM.

In the case of B13, binding was characterised by a dissociation constant (Kd) of 807 pM.

B14 came in with a Kd of 566 pM.

Molecule B15 registered an equilibrium dissociation constant (Kd) of 329 pM.

In turn, B16 returned an equilibrium dissociation constant (Kd) of 9470 pM.

Turning to B17, the dissociation constant (Kd) amounted to 1190 pM.

As to B18, the Kd turned out to be 243 pM.

As for B19, the Kd is 32100 pM.

The target in the next experiment is T2, human TIGIT on CHO cells. In words: FACS. Background: Flow cytometry measures light scatter and fluorescence of single cells or particles in a stream.
For B20, the midpoint of the response, the EC50, lay at 968 pM.

In turn, B21 showed an EC50 of 326 pM.

Take B22: the concentration giving a half-maximal response (EC50) was found to be 587 pM.

Another experiment concerns the target T2, human TIGIT on CHO cells. In words: competition, CD155 blocking FACS.
B20 displayed an IC50 of 586 pM.

Regarding B21, the IC50 stood at 281 pM.

In turn, B22 gave an IC50 of 819 pM.
